As usually defined, the Km is the substrate concentration at which the rate is half of its maximum. Usually kcat stands for the number of substrate molecules converted per active site and unit of time at saturation. By kcat/Km is commonly meant the turnover number divided by the Michaelis constant.

Substrate in this data set: O=P(O)(O)OC[C@H]1O[C@@H](n2cnc3c(O)ncnc32)C[C@@H]1O
Put plainly: Kinetic parameters of His-RCL (wild-type) with dNMP substrates, initial velocity measurements. In kind it is biochemical, rat. As to conditions: purine deoxynucleotides; 37.0 °C.

Procedure: The enzyme activity was determined either spectrophotometrically by following one of the reaction products, hypoxanthine or deoxyribose 5-phosphate, or by HPLC separation and UV detection of the released nucleobase and the remaining substrate. a) dIMP was used as a substrate and the hypoxanthine released oxidized to uric acid by xanthine oxidase. […] The decrease in absorbance at 340 nm was followed on a Amersham Biosciences Ultrospec 3100 pro spectrophotometer, using a millimolar absorbance coefficient of 6.22. […] Initial velocity experiments were carried out at variable concentrations of the six deoxynucleoside 5'-monophosphate: dAMP, dCMP, dGMP, dIMP, dTMP and dUMP (Table 1).

B1: His-RCL (deoxynucleoside 5′-monophosphate N-glycosidase) (Rattus norvegicus) (protein)
chain: MAASGEQAPCSVYFCGSIRGGREDQALYARIVSRLRRYGKVLTEHVADAELEPLGEEAAGGDQFIHEQDLNWLQQADVVVAEVTQPSLGVGYELGRAVALGKPILCLFRPQSGRVLSAMIRGAADGSRFQVWDYAEGEVETMLDRYFEAYLPQKTASSSHPSA
notes: made in house; host or cells: E. coli Bli5 (BL21 (DE3) pDIA17), plasmid pET28aRcl
As to B1, the Michaelis-Menten constant (Km) is 450 µM, the kcat came out at 0.0066 s⁻¹ and the kcat/Km turned out to be 14.7 M⁻¹ s⁻¹.

The values are drawn from patent publication US7781394B2, “Methods for identifying anti-tumor and/or anti-angiogenesis drugs with deoxynucleoside 5′-monophosphate N-glycosidase as the target” (Institut Pasteur, priority 2006, dated 2010).
